Source: EP1500662A2 (CORNELL RESEARCH FOUNDATION, INC., dated 2005)

How the values were obtained:
Assay in all cases: cell-based or functional assay
[1] = target: envelope glycoprotein of HIV-1 NL4-3 (HIV-1 NL4-3)
[2] = target: envelope glycoprotein of HIV-1 DJ258 (HIV-1 DJ258)
[3] = target: envelope glycoprotein of HIV-1 CM.235 (HIV-1 CM.235)
[4] = target: envelope glycoprotein of HIV-1 94ZW103 (HIV-1 94ZW103)
[5] = target: envelope glycoprotein of HIV-1 UG270 (HIV-1 UG270)
[6] = target: envelope glycoprotein of HIV-1 BZ162 (HIV-1 BZ162)
[7] = target: envelope glycoprotein of HIV-1 JFRL (HIV-1 JFRL)
[8] = target: envelope glycoprotein of HIV-1 Case C 7/86 (HIV-1 Case C 7/86)

| Binder | IC50 (nM), Human PBMC Infectivity Assays [1] | IC50 (nM), Human PBMC Infectivity Assays [2] | IC50 (nM), Human PBMC Infectivity Assays [3] | IC50 (nM), Human PBMC Infectivity Assays [4] | IC50 (nM), Human PBMC Infectivity Assays [5] | IC50 (nM), Human PBMC Infectivity Assays [6] | IC50 (nM), Human PBMC Infectivity Assays [7] | IC50 (nM), Human PBMC Infectivity Assays [8] |
| --- | --- | --- | --- | --- | --- | --- | --- | --- |
| C52F peptide (peptide) peptide: NHTTWMEWDREINNYTSLIHSLIEESQNLQEKNEQELLELDKWASLWNWFNIKIK | 23 nM | 9 nM | 11 nM | 4 nM | 68 nM | 2 nM | 5 nM | 49 nM |
| C52L peptide (peptide) peptide: NHTTWMEWDREINNYTSLIHSLFEESQNLQEKAEQELFELDKWASLWNWFNIKIK | 20 nM | 11 nM | – | 3 nM | 61 nM | 3 nM | 6 nM | 17 nM |
